# Data reported in patent US8871276B2, “Beta-casein assemblies for mucosal delivery of therapeutic bioactive agents” (Technion Research and Development Foundation Ltd., priority 2008, dated 2014).
# Several values for one entry are separate records, joined by “and”; a condition that tells them apart may be missing. Identical values can stand only once.
# Assays:
# Assay type in all cases: physicochemical
# [1] = Light microscopy (Nomarski DIC) / visual solubility observation; settings: hepes buffer, neutral pH, with or without β-casein
# Protocol: An Olympus BX51 light microscope was operated at Nomarski differential interference contrast (DIC) optics. A 5 μL drop was placed on a glass slide, covered with a cover slide. Images were recorded digitally with an Olympus DP71 digital camera connected to the light microscope. Image processing was performed using Cell A (Olympus).
# Bovine β-casein (>90%; Sigma-Aldrich) was dissolved in pH 7.0 hepes buffer containing 200 mM hepes (MP Biomedicals), 10 mM MgCl2 (Sigma-Aldrich), 20 mM EGTA (Sigma-Aldrich) and 10 mM NaCl (Loba Chemie), and was placed over-night at 4° C. under stirring. The protein solutions were prepared at concentrations ranging from 0.5 to 2 wt % (0.21 to 0.83 mM respectively), and were filtered through a porous membrane of 0.45 μm to avoid large protein aggregates. […] Stirring continued for 30 minutes in room temperature. […] The specimens remained stable i.e., no precipitation was observed, for at least 3 weeks at 4° C.
# [2] = Water content by Karl Fischer Coulometer
# Protocol: In this experiment the water content of celocoxib (CXB), beta-casein (β-CN) 1% nanocarriers, Sigma beta-casein (β-CN, Sigma material), and CXB-loaded β-CN 1% nanocarriers was measured by Metrohm 831 Karl Fischer Coulometer.
# In an attempt to reduce the water content, an additional lypholization cycle was performed for the empty and CXB-loaded β-CN 1% nanocarriers. After this second lyophilization cycle water content was measured by Metrohm 831 Karl Fischer Coulometer.
# Specifically, the first cycle lasted for 24 hours (data is presented in tables 5-7) then all samples were subjected to an additional cycle of lyophilization that lasted for 48 hours (total of 72 hours). Tables 8 and 9 present the results of samples that were subjected to 24, […], and 72 hours of lyophilization.
# [3] = Small angle X-ray scattering (SAXS) of micelles; settings: 1 wt % β-casein, empty or loaded 1:8 protein:celecoxib, pH ~7
# Protocol: The small angle X-ray scattering equipment consisted of a SAXSess camera (Anton-Paar, Graz, Austria) connected to an X-ray generator (Philips, PW 1730/10) operating at 40 kV and 50 mA with a sealed-tube Cu anode. A Gael mirror was used to convert the divergent polychromatic X-ray beam into a focused line-shaped beam of Cu Kα radiation (λ=0.154 nm). The 2D scattering pattern was recorded by a PI-SCX fused fiber optic taper CCD camera from Princeton Instruments, which is a division of Roper Scientific, Inc. (Trenton, N.J., USA). The used CCD detector features a 2084×2084 array with 24×24 μm pixel size (chip size: 50×50 mm). The CCD was operated at −30° C. with 10° C. water-assisted cooling to reduce the thermally generated charge. Cosmic ray correction and background subtraction were performed on the 2D image before further data processing. The 2D image was integrated into the one-dimensional scattering function within a band of 10 mm. The measurement time was 30 min for each scattering curve (6 images of 5 minutes were taken to assist the cosmic ray correction).
# The molecular weight of the scattering aggregates were calculated according to Eq. 1:
# [formula] where M is the molecular weight, dΣ(0)/dΩ (cm^−1) the forward scattering intensity at q=0, c (g/cm^3) the β-casein concentration, NA the Avogadro number, and ΔρM (cm/g) the scattering length difference per mass, given by: ΔρM=Δρ ν (2)
# The scattering length difference Δρ (cm^−2) was calculated using the known chemical composition of the protein and the solvent, and ν (cm^3/g), the specific volume of the protein in the solution that was calculated via density measurement of the solvent and the solution. The micelle aggregation number was then calculated by dividing the molecular weight of the micelles determined with Eq. 1, by the molecular weight of a single protein molecule.
# For a particle of arbitrary shape with a scattering density difference of Δρ(r), the pair distance distribution function p(r) (PDDF) is given by: p(r)=r^2Δ ρ^2(r) (3) where Δ ρ^2(r) is the convolution square of Δρ(r) averaged for all directions in space. The PDDF is related to the scattered intensity l(q) by a Fourier transformation, and it enables the determination of the overall shape and size of the scattering objects.
# [formula] λ is the wavelength of the incident radiation and θ is the angle between the scattered and incident beam. The function ƒ(r)=p(r)/r (6) is useful to identify flat plate-like particles, although it has no direct physical meaning. For lamellae, this function starts with a linearly increasing part and becomes almost flat when r is equal to the thickness of the lamella. For flat particles with a finite base area, the outer part decreases linearly because of boundary losses. The thickness of the lamella can then be read from the transition point.
# The structural characteristics of the micelles in the two pH environments were studied by cryo-TEM and SAXS (Small Angle X-ray Scattering). Cryo-TEM was used to determine the shape of the micelles and to estimate their dimensions between 4 and 40° C. This information was further used to accurately calculate the micelles' dimensions from the SAXS data, and to study how the size and shape are affected by temperature. SAXS measurements also provided the critical micelle concentration (CMC) and the micelle aggregation numbers as a function of temperature. Experiments were performed in the concentration range of 0.1-40 mg/mL protein, at low pH (between 2.1 and 2.6) in dilute lactic acid solution (6 wt %) or HCl and in aqueous solutions at pH 6.7-7.3 in absence of salts or the presence of up to 0.1M NaCl.
# SAXS measurements were used to determine the shape and dimensions of the micelles at low pH more precisely, and to evaluate the micelle molecular weight (i.e., the aggregation number). The scattering curves of 20 mg/mL β-casein in lactic acid solution (pH 2.6, IS 0.0022) at different temperatures are shown in FIG. 3a. […]
# [4] = Small angle X-ray scattering (SAXS) of micelles; settings: 1 wt % β-casein, empty or loaded 1:8 protein:celecoxib, pH ~7; remark: listed apart in the source
molecule,measurement,setting,value
"Cc1ccc(-c2cc(C(F)(F)F)nn2-c2ccc(S(N)(=O)=O)cc2)cc1 [Celecoxib, celecoxib, reference compound]",Solubility in aqueous buffer (observation),[1],poor solubility
"CC(C)CCC[C@@H](C)[C@H]1CC[C@H]2[C@@H]3CC=C4C[C@@H](O)CC[C@]4(C)[C@H]3CC[C@]12C [Cholesterol, cholesterol]",Solubility in aqueous buffer (observation),[1],does not dissolve in buffer at all
"β-CN: Sigma beta-casein raw material powder (protein, UniProt P02666 16-224, looked up) Beta-casein: RELEELNVPGEIVESLSSSEESITRINKKIEKFQSEEQQQTEDELQDKIHPFAQTQSLVYPFPGPIPNSLPQNIPPLTQTPVVVPPFLQPEVMGVSKVKEAMAPKHKEMPFPKYPVEPFTESQSLTLTDVENLHLPLPLLQSWMHQPHQPLPPTVMFPPQSVLSLSQSKVLPVPQKAVPYPQRDMPIQAFLLYQEPVLGPVRGPFPIIV",Average water content of lyophilized (dried) powders,[2]; data of Tables 5-7,more than 10 % w/w
same,"% water, AVR","[2]; β-CN Sigma material, lyophilization time none, average",13.0%
same,% water,"[2]; β-CN Sigma material, single sample",15.0% and 9.4% and 14.7%
"β-casein dried: empty β-casein micelles after lyophilization and re-suspension (protein, UniProt P02666 16-224, looked up, lyophilized micelles, empty β-casein micelles after lyophilization and re-suspension) Beta-casein: RELEELNVPGEIVESLSSSEESITRINKKIEKFQSEEQQQTEDELQDKIHPFAQTQSLVYPFPGPIPNSLPQNIPPLTQTPVVVPPFLQPEVMGVSKVKEAMAPKHKEMPFPKYPVEPFTESQSLTLTDVENLHLPLPLLQSWMHQPHQPLPPTVMFPPQSVLSLSQSKVLPVPQKAVPYPQRDMPIQAFLLYQEPVLGPVRGPFPIIV",Rg (from Guinier apr.),[3],8.1 nm
same,"V, from a, b",[3],2841 nm^3
same,Density,[4],1.23 g/mL
